The assay has as its target thioredoxin reductase. The assay is described as follows: cell-based or functional assay.

Positions of bridges follow the written chain, without caps; N, C: chain ends. No end group written: not given here.

For GTCVNVGCIPRQIKIWFQNRRMKWKK (disulfide 3-8 (inferred)) [peptide YJB02], the “IC50 of thioredoxin reductase activity (DTNB reduction, absorbance at 405-414 nM)” value stood at 36 nM.
